The chains are these.
B1: 4-H3_H1_L0 (antibody, human IgG1, kappa)
heavy: not shown
light: DIQMTQSPSSLSASVGDRVTITCLASEDIASGISWYQQKPGKAPKLLIYGASNLESGVPSRFSGSGSGTDFTLTISSLQPEDFATYYCLGGYSFSSNGLTFGGGTKVEIKTVAAPSVFIFPPSDEQLKSGTASVVCLLNNFYPREAKVQWKVDNALQSGNSQESVTEQDSKDSTYSLSSTLTLSKADYEKHKVYACEVTHQGLSSPVTKSFNRGEC
notes: humanised, human IgG1 kappa
B2: 4-H3_H2_L1 (antibody, human IgG1, kappa)
heavy: not shown
light: B1 light with I2Y, F71Y
notes: humanised, human IgG1 kappa
B3: 4-H3_H4_L1 (antibody, human IgG1, kappa, V domains shown)
VH: QVQLVESGGGVVQPGRSLRLSCAASGIDLTSNAMNWVRQAPGKGLEWVAGIYGHDTSYYAAWAKGRFTISRDNSKNTLYLQMNSLRAEDTATYFCARGFIYFDIWGQGTLVTVSS
VL: DYQMTQSPSSLSASVGDRVTITCLASEDIASGISWYQQKPGKAPKLLIYGASNLESGVPSRFSGSGSGTDYTLTISSLQPEDFATYYCLGGYSFSSNGLTFGGGTKVEIKT
notes: humanised, human IgG1 kappa
B4: 4-H3_H2_L0 (antibody, human IgG1, kappa)
heavy: not shown
light: B1 light
notes: humanised, human IgG1 kappa
B5: 4-H3_H3_L0 (antibody, human IgG1, kappa, V domains shown)
VH: B3 VH with V48I, A49G, L78V, T92V, F94Y
VL: B3 VL with Y2I, Y71F
notes: humanised, human IgG1 kappa
B6: 4-H3_H3_L1 (antibody, human IgG1, kappa, V domains shown)
VH: B3 VH with V48I, A49G, L78V, T92V, F94Y
VL: B3 VL
notes: humanised, human IgG1 kappa
B7: 4-H3_H0_L1 rep (antibody, human IgG1, kappa, V domains shown)
VH: B3 VH with I27F, D28T, L29F, T30S, T92V, F94Y
VL: B3 VL
notes: humanised, human IgG1 kappa
B8: 4-H3_H1_L1 (antibody, human IgG1, kappa)
heavy: not shown
light: B1 light with I2Y, F71Y
notes: humanised, human IgG1 kappa
B9: 4-H3_H4_L0 (antibody, human IgG1, kappa, V domains shown)
VH: B3 VH
VL: B3 VL with Y2I, Y71F
notes: humanised, human IgG1 kappa
B10: 1-D5_H2_L1 (antibody, human IgG1, kappa, V domains shown)
VH: QQQLVESGGGVVQPGRSLRLSCAASGFSLNNYIMGWVRQAPGKGLEYIGIISTGGSTYYASWAKGRFTISRDSNTMYLQMNSLRAEDTATYFCARGGSSAGAGFNIWGQGTLVTVSS
VL: DIQMTQSPSSLSASVGDRVTITCQASQSINSGLAWYQQKPGKAPKRLIYKASTLASGVPSRFSGSGSGTDFTLTISSLQPEDFATYYCQSYHYISANGATFGGGTKVEIKT
notes: humanised, human IgG1 kappa
B11: 1-D5_H1_L1 (antibody, human IgG1, kappa, V domains shown)
VH: QVQLVESGGGVVQPGRSLRLSCAASGFSLNNYIMGWVRQAPGKGLEWVAIISTGGSTYYASWAKGRFTISRDNSKNTLYLQMNSLRAEDTAVYYCARGGSSAGAGFNIWGQGTLVTVSS
VL: B10 VL
notes: humanised, human IgG1 kappa
B12: 1-D5_H0_L0 (antibody, human IgG1, kappa, V domains shown)
VH: B11 VH with S28T, L29F, N30S
VL: B10 VL with R46L
notes: humanised, human IgG1 kappa
B13: 1-D5_H2_L0 (antibody, human IgG1, kappa, V domains shown)
VH: B10 VH
VL: B10 VL with R46L
notes: humanised, human IgG1 kappa
B14: 4-H3_H5_L1 (antibody, human IgG1, kappa)
heavy: not shown
light: B1 light with I2Y, F71Y
notes: humanised, human IgG1 kappa
B15: 4-H3_H5_L0 (antibody, human IgG1, kappa)
heavy: not shown
light: B1 light
notes: humanised, human IgG1 kappa
B16: 4-H3_H7_L0 rep (antibody, human IgG1, kappa, V domains shown)
VH: B3 VH with V48I, A49G, L78V
VL: B3 VL with Y2I, Y71F
notes: humanised, human IgG1 kappa
B17: 4-H3_H7_L1 (antibody, human IgG1, kappa, V domains shown)
VH: B3 VH with V48I, A49G, L78V
VL: B3 VL
notes: humanised, human IgG1 kappa

Where a chain is given by its changes, count along the chain named.

The first assay addresses T1, human full-length VWF (human, UniProt P04275 764-2813). As to the kind of experiment: SPR, Biacore T200, antibody captured on Protein A, full-length VWF as analyte, single-cycle kinetics.
Experimental: (§1) Antibodies were captured on Protein A sensor chip. The system was purged using running buffer (10 mM HEPES pH 7.4, 300 mM NaCl, 3 mM EDTA, 0.05% P20) and a series S Protein A chip was docked in the Biacore T200. The surface was conditioned with 10 mM glycine-HCl pH 1.5 regeneration solution (3 injections). Each antibody was diluted to ˜0.8 μg/ml in running buffer to capture ˜350 RU on flow cells 2, 3 and 4 (flow cell 1 used as in-line reference cell). Single-cycle kinetic analysis of human full-length VWF binding to antibodies was performed using the following parameters:
Regarding B1, the Kd amounted to 18.7 pM, the off-rate (koff) stood at 2.49e-06 s⁻¹ and the kon was 134000 M⁻¹ s⁻¹.

The molecule B2 came in with a Kd of 4.53 pM, a koff of 1.36e-07 s⁻¹ and a kon of 29900 M⁻¹ s⁻¹.

B3: the Kd is 0.14 pM, the koff is 6.25e-09 s⁻¹ and the kon is 44500 M⁻¹ s⁻¹.

The molecule B4 yielded a Kd of 27.3 pM, a koff of 9.13e-07 s⁻¹ and a kon of 33500 M⁻¹ s⁻¹.

B5 showed a Kd of 1.92 pM, a koff of 1.45e-07 s⁻¹ and a kon of 75600 M⁻¹ s⁻¹.

B6 gave a Kd of 1.49 pM, a koff of 1.72e-07 s⁻¹ and a kon of 115000 M⁻¹ s⁻¹.

In turn, B7 displayed a dissociation constant Kd of 4.12 pM, a koff of 1.52e-07 s⁻¹ and a kon of 36900 M⁻¹ s⁻¹.

With B8, the Kd was found to be 13.8 pM, the koff came to 4.27e-07 s⁻¹ and the kon was 31000 M⁻¹ s⁻¹.

B9 gave an equilibrium dissociation constant (Kd) of 19.3 pM, a koff of 5.24e-07 s⁻¹ and a kon of 27100 M⁻¹ s⁻¹.

For B10, binding was characterised by a dissociation constant (Kd) of 38 pM, the koff was 1.13e-05 s⁻¹ and the kon was found to be 298000 M⁻¹ s⁻¹.

B11 showed a Kd of 0.0946 pM, a koff of 6.72e-09 s⁻¹ and a kon of 71000 M⁻¹ s⁻¹.

For B12, the Kd was found to be 0.15 pM, the off-rate (koff) turned out to be 1.13e-08 s⁻¹ and the kon was 75200 M⁻¹ s⁻¹.

In turn, B13 registered a Kd of 7.66 pM, a koff of 1.06e-06 s⁻¹ and a kon of 138000 M⁻¹ s⁻¹.

For a further assay, the target named is T1, human full-length VWF. The assay is described as above. This is another data set of the same source.
Experimental: as §1
B14 displayed a dissociation constant (Kd) of 0.575 pM, a koff of 5.95e-08 s⁻¹ and a kon of 103000 M⁻¹ s⁻¹.

Regarding B15, the Kd turned out to be 0.366 pM, the koff turned out to be 4.93e-08 s⁻¹ and the kon turned out to be 135000 M⁻¹ s⁻¹.

As to B16, the Kd stood at 1.61 pM, the koff is 1.73e-07 s⁻¹ and the kon was determined as 108000 M⁻¹ s⁻¹.

Consider B17, for which the affinity, expressed as Kd, was 5.84 pM; the off-rate constant (koff) was 3.82e-07 s⁻¹; the association rate constant (kon) was 65400 M⁻¹ s⁻¹.

Another assay has as its target T1, human full-length VWF. As to the kind of experiment: SPR Biacore T200, antibody captured on Protein A chip, full-length VWF as analyte, single-cycle kinetics.
Experimental: as §1
In the case of B1, the Kd is < 1000 pM.

Turning to B2, the Kd is < 1000 pM.

For B14, the Kd is < 1000 pM.

Regarding B15, the Kd is < 1000 pM.

In the case of B3, the Kd was < 1000 pM.

Take B4: the Kd is < 1000 pM.

On to B5, for which the Kd is < 1000 pM.

For the molecule B6, the Kd is < 1000 pM.

Consider B7, for which the Kd is < 1000 pM.

Turning to B16, the Kd is < 1000 pM.

In the case of B17, the Kd is < 1000 pM.

For the molecule B8, the Kd was < 1000 pM.

On to B9, for which the equilibrium dissociation constant (Kd) was < 1000 pM.

As for B10, the Kd was < 1000 pM.

For the molecule B11, the dissociation constant (Kd) was < 1000 pM.

Regarding B12, the Kd was < 1000 pM.

As to B13, the Kd is < 1000 pM.

Source of the values: US20240228660A1 (IP2IPO INNOVATIONS, published 2024).
